Test results reported in doi:10.1101/2025.05.29.656919 (bioRxiv, 2025).

Experiments:
Assay in all cases: pull-down
[1] = biological target: T1, Glutathione S-transferase-fused VDAC1 (Arabidopsis, UniProt Q9SRH5 1-276)
T1 sequence (looked up): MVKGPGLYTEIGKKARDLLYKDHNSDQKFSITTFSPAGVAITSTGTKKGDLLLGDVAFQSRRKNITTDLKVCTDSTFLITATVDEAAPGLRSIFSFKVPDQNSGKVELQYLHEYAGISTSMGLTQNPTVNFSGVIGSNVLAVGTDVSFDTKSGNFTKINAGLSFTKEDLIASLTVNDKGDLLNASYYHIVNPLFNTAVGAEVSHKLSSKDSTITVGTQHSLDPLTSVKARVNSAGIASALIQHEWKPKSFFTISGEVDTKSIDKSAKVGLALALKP

[2] = biological target: T2, Glutathione S-transferase-fused VDAC2 (Arabidopsis, UniProt Q9FJX3 1-276)
T2 sequence (looked up): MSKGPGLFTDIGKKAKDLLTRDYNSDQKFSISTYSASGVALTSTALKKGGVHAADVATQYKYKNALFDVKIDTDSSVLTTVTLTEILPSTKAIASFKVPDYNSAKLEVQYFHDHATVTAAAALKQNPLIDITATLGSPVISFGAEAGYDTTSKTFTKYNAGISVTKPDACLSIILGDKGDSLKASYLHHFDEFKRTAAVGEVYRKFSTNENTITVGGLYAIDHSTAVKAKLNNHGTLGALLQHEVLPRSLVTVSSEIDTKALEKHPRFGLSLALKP

[3] = biological target: T3, Glutathione S-transferase-fused VDAC3 (Arabidopsis, UniProt Q9SMX3 1-274)
T3 sequence (looked up): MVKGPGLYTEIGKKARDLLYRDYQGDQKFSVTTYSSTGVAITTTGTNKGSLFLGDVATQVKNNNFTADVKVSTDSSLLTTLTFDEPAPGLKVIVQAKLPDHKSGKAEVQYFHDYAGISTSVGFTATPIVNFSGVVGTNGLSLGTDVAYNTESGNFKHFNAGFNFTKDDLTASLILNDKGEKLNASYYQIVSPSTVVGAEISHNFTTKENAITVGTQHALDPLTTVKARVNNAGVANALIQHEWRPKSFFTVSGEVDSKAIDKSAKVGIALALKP

Measured: binding result

B1: 6×His-tagged ATG8e (natural protein, Arabidopsis, UniProt Q8S926 1-118, looked up)
chain: MNKGSIFKMDNDFEKRKAEAGRIREKYPDRIPVIVEKAEKSEVPNIDKKKYLVPSDLTVGQFVYVIRKRIKLSAEKAIFIFVDNVLPPTGELMSSVYEDKKDEDGFLYITYSGENTFG
binds: all assays above

B2: ATG8e with UDS mutation (I78A, F79A, I80A) (natural protein, Arabidopsis, UniProt Q8S926 1-118, looked up)
chain: MNKGSIFKMDNDFEKRKAEAGRIREKYPDRIPVIVEKAEKSEVPNIDKKKYLVPSDLTVGQFVYVIRKRIKLSAEKAAAAFVDNVLPPTGELMSSVYEDKKDEDGFLYITYSGENTFG
binds: all assays above
